According to US20050074865A1:

Target: recombinant human TNFα (RDI) (human) (UniProt P01375)
Experiment: cell-based or functional assay

Chain of recombinant human TNFα (RDI) (human) (P01375 77-233 limits assumed): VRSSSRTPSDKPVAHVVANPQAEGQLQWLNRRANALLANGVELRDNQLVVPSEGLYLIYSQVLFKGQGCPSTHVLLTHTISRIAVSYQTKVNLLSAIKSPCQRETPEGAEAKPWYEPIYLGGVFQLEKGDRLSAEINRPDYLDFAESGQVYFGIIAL

B1: MMP7 (enzyme, UniProt P09237 95-267, looked up, species assumed)
Matrilysin: YSLFPNSPKWTSKVVTYRIVSYTRDLPHITVDRLVSKALNMWGKEIPLHFRKVVWGTADIMIGFARGAHGDSYPFDGPGNTLAHAFAPGTGLGGDAHFDEDERWTDGSSLGINFLYAATHELGHSLGMGHSSDPNAVMYPTYGNGDPQNFKLSQDDIKGIQKLYGKRSNSRKK
L929 cell survival at the dilution equivalent to ~600 pg/ml TNFα (reference standard: 10% survival): 40 % survival | log reduction in TNFα activity at the 50% survival level, L929 cytotoxicity bioassay after overnight digestion: 1.22 log
